Test results taken from paper PMC12804832.

Target: T1, Msn2 DBD (Saccharomyces cerevisiae, UniProt P33748 643-704)
T1 sequence: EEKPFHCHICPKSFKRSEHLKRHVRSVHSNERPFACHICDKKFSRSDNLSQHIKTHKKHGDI
Test: EMSA

B1: 51 bp DNA without motif (dsDNA)
DNA 1: CCTGCCACCTACACATACTTCCTACACAACCTGAGTCGTATTAATTTCGCG
DNA 2: CGCGAAATTATACGACTCAAGTTGTGTAGGAAGTATGTGTAGGTGGCGAGG
Question: Does B1 bind?
Answer: Result: no binding
